The values below come from publication PMC12321301.

Like-named read-outs stand apart in the source and are kept apart here.

The target in series [1] is T1, cardiac troponin I (cTnI) (UniProt P19429 2-210). Kind of series: direct ELASA.
In series [2] the target is T1, cardiac troponin I (cTnI). Kind of series: direct ELASA. The source holds these as a separate data set.

T1 sequence (P19429 2-210): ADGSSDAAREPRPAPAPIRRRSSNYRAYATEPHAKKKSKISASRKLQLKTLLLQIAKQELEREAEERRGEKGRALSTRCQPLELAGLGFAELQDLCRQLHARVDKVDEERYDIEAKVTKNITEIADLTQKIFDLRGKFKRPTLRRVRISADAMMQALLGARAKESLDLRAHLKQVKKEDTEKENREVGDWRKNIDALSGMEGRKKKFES

B1: Tro4 (5'-biotin) (ssDNA)
DNA: CGTGCAGTACGCCAACCTTTCTCATGCGCTGCCCCTCTTA
As to B1, the binding result in series [1] is given as “binds”.

B2: Tro6 (5'-thiol C6, HRP conjugate) (ssDNA)
DNA: CGCATGCCAAACGTTGCCTCATAGTTCCCTCCCCGTGTCC
Consider B2, for which the binding result in series [2] is reported as “binds”.
